From US20110059092A1 (INNOGENETICS, published 2011)
Ends that are not written are not given here. * marks the point of attachment. Biotin = O=C1N[C@H]2[C@H](CS[C@H]2CCCCC(=O)*)N1

Columns and labels:
Aβ6-13-bio = target: T1, Aβ6-13-bio (not fully specified (C-terminus); printed as H6DSGYEVH13GK-biotin); assay: Luminex: biotinylated peptide on avidin beads, anti-mouse phycoerythrin detection
T1 construct: Synthetic biotinylated peptide, shifted two amino acids N-terminal compared with Aβ8-15; also called Aβ6-13 peptide
T1 peptide: HDSGYEVHGK(Biotin)
Description: (§1) To determine the specificity of the antibody a peptide was used which is shifted two amino-acids N-terminal as compared to the Aβ₈₋₁₅, the Aβ₆₋₁₃ peptide. The biotinylated versions of these peptides are used in order to capture it efficiently to avidin Luminex beads. […] The results presented in Table 3 are raw data expressed as Mean Fluorescence Intensity (MFI).

Aβ8-15-bio [1] = target: T2, Aβ8-15-bio (not fully specified (C-terminus); printed as S8GYEVHHQ15GK-biotin); assay: as above
T2 construct: Synthetic biotinylated peptide with a free N-terminus at Ser8 of Aβ; also called IGP-2258; Aβ8-15 peptide
T2 peptide: SGYEVHHQGK(Biotin)
Description: as §1

Aβ8-15-bio [2] = target: T2, Aβ8-15-bio; assay: bridging assay: BSA-coupled Aβ8-15 peptide (PG127) captures one binding site, biotinylated peptide detects
Protocol: Spleen of both mice were prepared and fused to SP2/0 cells. After plating, 66 plates (±3000 clones) were screened. […] In the bridging assay, BSA coupled peptide IGP-128, PG127 (see Table 3) was used to capture one binding site of the antibody and a biotinylated peptide was used to detect the captured antibody in a so-called bridging assay. This assay gives an indication on the affinity of the antibody: a high-affinity antibody will give a higher signal than a lower affinity antibody. Indeed ‘two classes’ of antibodies have been identified.

Binder	Luminex assay (MFI) (Aβ6-13-bio)	Luminex assay (MFI) (Aβ8-15-bio [1])	Bridging assay (OD450) (Aβ8-15-bio [2])
TeiA 2b.6 (antibody, IgG2b, V domains shown, Mouse monoclonal, IgG2b; also called 2.13.E5; 2.13.E5.E4) VH: GGLVQPGGSLRLSCATSGFTFTDFYMEWVRQPPGKRLEWIAASRNKANGYTTEYSASVKGRFIVSRDTSQGILYLQMSALRAEDTAIYYCAIYRYYAMDYWGQGTSVTVSS VL: SSLTVTAGEKVTMSCKSSQSLFNSGRQTNYLTWFQQRPGQAPKLLIYWASTRGSGVPDRFTGSGSGTEFTLTISSVQAEDLAVYYCQNDYTYPLTFGAG	51	1690	4
TeiA 1.1 (antibody, IgG1, V domains shown, Mouse monoclonal, IgG1; The printed variable regions seem N-terminally incomplete (primer region missing); also called 3.46.B10; 3.46.B10.E7) VH: GGLVQPGGSLRLSCATSGFTFSDFFIEWVRQPPGKRLEWITASRNKNYDYKTEYSASVKGRFIVSRDTSQSILYLQMNALRAEDTAIYYCAIYRHYAMDYWGQGTSVTVSS VL: SSLTVTAGEKVTMSCTSSQSLFNSGTQTNYLTWYQQKPGQPPKLLIYWASTRESGVPDRFTGSGSGTDFTLTISSVQAEDLAVYYCQNDYTYPLTFGAG	24	1820	3.76
TeiA 1.7 (antibody, IgG1, V domains shown, Mouse monoclonal, IgG1; The printed variable regions seem N-terminally incomplete (primer region missing); also called 2.8.A3; 2.8.A3.F8) VH: GGLVQPGGSLRLSCATSGFTFSDFYMEWVRQPPGRRLEWIAASRDKAKDYTTEYSASVKGRFIVSRDTSQSIFYLQMNALRSEDTAIYYCATYFSYAMDYWGLGTSVTVSS VL: SSLTVTAGEKVTMNCKSSQNLLNSGNQVNYLTWFQQKPGQPPKLLIYWASTRESGVPDRFIGSGSGTDFTLTINSVQAEDLAVYYCQNDYRYPLTFGAG	5	1720	0.222
